What was measured:
rhesus IL-1beta = target: T1, rhesus IL-1beta (rhesus monkey, UniProt P79182)
T1 chain: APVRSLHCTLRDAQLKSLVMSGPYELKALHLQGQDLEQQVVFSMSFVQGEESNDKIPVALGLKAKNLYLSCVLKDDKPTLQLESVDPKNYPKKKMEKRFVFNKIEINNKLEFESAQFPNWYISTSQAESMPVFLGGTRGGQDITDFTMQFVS

mouse IL-1beta = target: T2, mouse IL-1beta (mouse, UniProt P10749); test: SPR, 8 nM
T2 chain: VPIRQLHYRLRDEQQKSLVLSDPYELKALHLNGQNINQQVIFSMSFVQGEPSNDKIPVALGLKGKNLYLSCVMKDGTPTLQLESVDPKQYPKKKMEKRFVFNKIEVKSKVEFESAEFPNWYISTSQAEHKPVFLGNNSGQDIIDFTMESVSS

rabbit IL-1beta = target: T3, rabbit IL-1beta (rabbit, UniProt P14628); test: SPR, 8 nM
T3 chain: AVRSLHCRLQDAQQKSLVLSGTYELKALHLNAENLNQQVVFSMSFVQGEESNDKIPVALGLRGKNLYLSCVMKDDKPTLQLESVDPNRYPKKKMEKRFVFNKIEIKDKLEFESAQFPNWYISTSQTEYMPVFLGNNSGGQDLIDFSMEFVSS

rat IL-1beta = target: T4, rat IL-1beta (rat, UniProt Q63264); test: SPR, 8 nM
T4 chain: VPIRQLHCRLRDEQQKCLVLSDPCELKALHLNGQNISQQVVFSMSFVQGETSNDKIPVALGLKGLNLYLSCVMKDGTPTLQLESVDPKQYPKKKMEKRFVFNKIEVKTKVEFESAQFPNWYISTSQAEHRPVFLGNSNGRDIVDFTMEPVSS

human IL-1Ra = human IL-1Ra (human, UniProt P18510); test: SPR, 8 nM

- binding result (rhesus IL-1beta): no binding
- binding result (mouse IL-1beta): no binding
- binding result (rabbit IL-1beta): no binding
- binding result (rat IL-1beta): no binding
- binding result (human IL-1Ra): no binding
B1: ACZ885 (antibody, V domains shown)
VH: QVQLVESGGGVVQPGRSLRLSCAASGFTFSVYGMNWVRQAPGKGLEWVAIIWYDGDNQYYADSVKGRFTISRDNSKNTLYLQMNGLRAEDTAVYYCARDLRTGPFDYWGQGTLVTVSS
VL: EIVLTQSPDFQSVTPKEKVTITCRASQSIGSSLHWYQQKPDQSPKLLIKYASQSFSGVPSRFSGSGSGTDFTLTINSLEAEDAAAYYCHQSSSLPFTFGPGTKVDIK
